From patent publication US20200165613, “VIRUS LIKE PARTICLE” (The University of Leeds, published 2020)

What was measured:
[1] = target: T1, STNV coat protein wild-type (Satellite tobacco necrosis virus 1) (UniProt P03606); details: QELS after SEC; Rh 9.1 nm
T1 sequence: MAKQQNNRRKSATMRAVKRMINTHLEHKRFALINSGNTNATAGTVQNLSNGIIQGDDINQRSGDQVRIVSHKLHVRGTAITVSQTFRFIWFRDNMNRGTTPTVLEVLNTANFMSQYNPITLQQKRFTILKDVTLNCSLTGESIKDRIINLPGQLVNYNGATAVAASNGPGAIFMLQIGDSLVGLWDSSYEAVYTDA

[2] = target: T2, STNV coat protein wild-type (Satellite tobacco necrosis virus 1, UniProt P03606 P03606:1-196); test: competition; competes with B3; T=1 peak in svAUC; details: chain copies: trimeric capsomer / T=1 capsid; stem-loop
T2 sequence: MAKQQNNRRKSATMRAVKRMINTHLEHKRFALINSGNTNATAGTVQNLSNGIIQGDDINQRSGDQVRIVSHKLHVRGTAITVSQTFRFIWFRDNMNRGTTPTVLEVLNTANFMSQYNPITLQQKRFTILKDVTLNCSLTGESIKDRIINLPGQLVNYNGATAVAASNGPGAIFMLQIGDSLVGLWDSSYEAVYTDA

[3] = target: T2, STNV coat protein wild-type; test: competition; competes; forms T=1; text states low nanomolar affinity for AUUA; details: chain copies: trimeric capsomer / T=1 capsid; stem-loop
[4] = target: T2, STNV coat protein wild-type; test: svAUC; T=1 capsids with similar efficiency to PS3; 2 mM Ca2+; details: chain copies: trimeric capsomer / T=1 capsid; stem-loop
[5] = target: T2, STNV coat protein wild-type; test: smFCS; more efficient than wild-type 127-mer; details: chain copies: trimeric capsomer / T=1 capsid; label: 5' Alexa Fluor 488; five stem-loops
[6] = target: T2, STNV coat protein wild-type; test: smFCS; Rh collapse 20-30% then cooperative T=1 assembly; details: chain copies: trimeric capsomer / T=1 capsid; label: 5' Alexa Fluor 488; five stem-loops
[7] = target: T2, STNV coat protein wild-type; test: smFCS; best assembly substrate; details: chain copies: trimeric capsomer / T=1 capsid; label: 5' Alexa Fluor 488; five stem-loops
[8] = target: T2, STNV coat protein wild-type; test: smFCS; T=1 at lower CP than wild-type 127-mer; details: chain copies: trimeric capsomer / T=1 capsid; label: 5' Alexa Fluor 488; five stem-loops
[9] = target: T2, STNV coat protein wild-type; test: smFCS; T=1 but cooperativity lost; details: chain copies: trimeric capsomer / T=1 capsid; label: 5' Alexa Fluor 488
[10] = target: T2, STNV coat protein wild-type; test: competition; unlabelled B3 displaces AF488-B3 at 100-fold excess; details: chain copies: trimeric capsomer / T=1 capsid; stem-loop

STNV-1 genome
activity (% relative VLP yield) [1]: 80

ACAUGCAUUUAUGCACAC (ssRNA) [B3 UUUA]
binding result [2]: binds

ACAUGCAAUUAUGCACAC (ssRNA) [B3 AUUA]
binding result [3]: binds

ACAUGCAAGUAUGCACAC (ssRNA) [B3 AGUA]
binding result [4]: binds

ACAUGCAAAAAUGCACAC (ssRNA) [B3 AAAA]
binding result [4]: binds

B1: All PS3 (ssRNA)
RNA: GGGCCCCGCAACAAUGCGGGGAAGGAAGGAAGGAAGAAAACGUACAAACGUUUUAAGGAACAACGCAACAAUGCGUUGAAGGAAGGAAGGAAGGGGCGUACAAACGCCCCAAGGAAUUUUGCAACAAUGCAAAAAAGGAA
binding result [5]: binds

B2: STNV-1 PS1-5 127-mer (ssRNA)
RNA: GAGUAAAGACAGGAAACUUUACUGACUAACAUGGCAAAACAACAGAACAACAGGCGAAAAUCCGCAACAAUGCGUGCAGUGAAGCGCAUGAUAAAUACACACUUGGAGCAUAAAAGGUUUGCACUGA
binding result [6]: binds

ACAUGCAAGGAUGCACAC (ssRNA) [B3 AGGA]
binding result [4]: binds

B3: Synthetic, stabilised PS1-5 (ssRNA)
RNA: GGGCUGCCCUCAAGGACCAGGGCAGAAAAGAGGAAAAGAAAAGUGACAGAACACUUAUAAGGAAAAAACGUACAAACGUUUUAAGGAAAAAAGGAAGCUGCAAUAGCGCAAGGAAUCCGAAAAUUCGGAAAGGAA
binding result [7]: binds

B4: Stable PS1-5 (ssRNA)
RNA: GGGCUGCCCUCAAGGACCAGGGCAGAAAAGAGGAAAAGAAAAGUGACAGAACACUUAUAAGGAACCACACAAGUGGAAGGAAAAAAGGAAGCUGCAAUAGCGCAAGGAAUCCGAAAAUUCGGAAAGGAA
binding result [8]: binds

B5: Unstable PS1-5 (ssRNA)
RNA: GGGCUGCCCUCAAGGACCAGGGCAGAAAAGAGGAAAAGAAAAGUGACAGAACACUUAUAAGGAACCACACAAGUAUAAGGAAAAAAGGAAGCUGCAAUAGCGCAAGGAAUCCGAAAAUUCGGAAAGGAA
binding result [9]: binds

ACAUGCAACAAUGCACAC (ssRNA) [B3 short / PS3 ACAA]
binding result [10]: binds

ACAUGCAAUGAUGCACAC (ssRNA) [B3 AUGA]
binding result [4]: binds
